From WO2013005649A1 (dated 2013)
Numbering of substitutions follows the chain as printed. Each block holds one binder with its values, some of them ahead of it. Non-standard residues stand in square brackets, D forms with d. No end group written: not given here. sY = N[C@@H](Cc1ccc(OS(=O)(=O)O)cc1)C(=O)O

Assays:
[1] = molecular target: T1, human CCR6 with C-terminal His tag, on CHO-hCCR6 (isoform1) or U937-CCR6 cells (human, UniProt P51684 1-374); assay: flow cytometry on CHO-hCCR6 cells
T1 construct: Expressed from pKANTEX-hCCR6 (isoform1) in CHO/DG44 cells (CHO-hCCR6) and in U937 cells (U937-CCR6); also called hCCR6-His-tag
T1 sequence: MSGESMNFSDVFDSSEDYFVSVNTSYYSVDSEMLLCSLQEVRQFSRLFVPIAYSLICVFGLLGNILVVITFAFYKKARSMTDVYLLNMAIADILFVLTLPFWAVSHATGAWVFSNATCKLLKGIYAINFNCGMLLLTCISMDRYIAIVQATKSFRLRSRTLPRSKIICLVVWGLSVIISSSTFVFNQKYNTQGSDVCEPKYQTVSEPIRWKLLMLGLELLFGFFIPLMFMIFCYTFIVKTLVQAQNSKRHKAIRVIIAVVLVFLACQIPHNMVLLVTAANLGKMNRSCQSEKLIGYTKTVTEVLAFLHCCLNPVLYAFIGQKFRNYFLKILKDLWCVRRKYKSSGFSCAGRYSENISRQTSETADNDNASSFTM

[2] = molecular target: T2, synthetic peptide CCR6-1 (1st to 17th amino acids of human CCR6) (human, also: 11 PEG units at the C-terminal side); assay: binding ELISA on coated peptide
T2 construct: also called CCR6-1 peptide
T2 peptide: MSGESMNFSDVFDSSEDC

[3] = molecular target: T3, cynomolgus monkey CCR6 (isoform 1, 177Val type) with C-terminal His tag, on CHO-cynomolgus CCR6 cells (cynomolgus monkey, UniProt P51684 1-374 (human entry)); assay: flow cytometry on CHO-cynomolgus CCR6 cells
T3 construct: also called mfCCR6
T3 chain: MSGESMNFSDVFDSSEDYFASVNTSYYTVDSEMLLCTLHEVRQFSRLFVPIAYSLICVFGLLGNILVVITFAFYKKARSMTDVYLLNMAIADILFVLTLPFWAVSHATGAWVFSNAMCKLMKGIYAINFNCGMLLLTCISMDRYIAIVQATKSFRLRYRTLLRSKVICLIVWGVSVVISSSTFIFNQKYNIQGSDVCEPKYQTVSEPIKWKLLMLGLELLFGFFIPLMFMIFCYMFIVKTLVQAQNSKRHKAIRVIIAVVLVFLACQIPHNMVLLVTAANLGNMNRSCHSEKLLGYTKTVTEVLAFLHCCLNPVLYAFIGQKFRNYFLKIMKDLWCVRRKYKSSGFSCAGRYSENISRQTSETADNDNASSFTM

[4] = molecular target: T1, human CCR6 with C-terminal His tag, on …; assay: flow cytometry on CHO-hCCR6 cells, 0.0001 to 10 μg/mL antibody
[5] = molecular target: T4, synthetic peptide CCR6-3 (20th to 34th amino acids of human CCR6) (human, Cys residue introduced at the N-terminal or C-terminal side); assay: binding ELISA on coated peptide
T4 construct: also called CCR6-3 peptide
T4 peptide: CVSVNTSYYSVDSEML

[6] = molecular target: T5, synthetic peptide CCR6-4 (30th to 46th amino acids of human CCR6) (human, also: 11 PEG units at the N-terminal side); assay: binding ELISA on coated peptide
T5 construct: also called CCR6-4 peptide
T5 peptide: DSEMLLSSLQEVRQFSRC

[7] = molecular target: T6, human CCR6 N-terminal extracellular domain Fc fusion protein NthCCR6-IgG4Fc (human, contains a sulfated Tyr residue; N-linked sugar chains); assay: SPR, Biacore T100; NthCCR6-IgG4Fc captured on anti-human IgG CM5 chip, antibody injected
T6 construct: Made in CHO/DG44 cells; also called NthCCR6-Fc; NtCCR6-IgG4Fc

[8] = molecular target: T3, cynomolgus monkey CCR6 (isoform 1, …); assay: flow cytometry on CHO-cynomolgus CCR6 cells, 0.0001 to 10 μg/mL antibody
[9] = molecular target: T7, synthetic peptide CCR6-2S (9th to 23rd amino acids of human CCR6, Tyr18-sulfation) (human); assay: binding ELISA on coated peptide
T7 construct: also called CCR6-2S peptide; P2: CCR6-2S(B)
T7 peptide: CSDVFDSSED[sY]FVSVN

[10] = molecular target: T8, synthetic peptide CCR6-2 (9th to 23rd amino acids of human CCR6) (human, not fully specified); assay: binding ELISA on coated peptide
T8 construct: Not sulfated; also called CCR6-2 peptide; P3: CCR6-2(B)
T8 peptide: CSDVFDSSEDYFVSVN

[11] = molecular target: T2, synthetic peptide CCR6-1 (1st to 17th …); assay: binding ELISA on coated peptide, 10 μg/mL antibody
[12] = molecular target: T7, synthetic peptide CCR6-2S (9th to 23rd …); assay: binding ELISA on coated peptide, 10 μg/mL antibody
[13] = molecular target: T8, synthetic peptide CCR6-2 (9th to 23rd …); assay: binding ELISA on coated peptide, 10 μg/mL antibody

T6 sequence (chain, as listed by the source limits assumed): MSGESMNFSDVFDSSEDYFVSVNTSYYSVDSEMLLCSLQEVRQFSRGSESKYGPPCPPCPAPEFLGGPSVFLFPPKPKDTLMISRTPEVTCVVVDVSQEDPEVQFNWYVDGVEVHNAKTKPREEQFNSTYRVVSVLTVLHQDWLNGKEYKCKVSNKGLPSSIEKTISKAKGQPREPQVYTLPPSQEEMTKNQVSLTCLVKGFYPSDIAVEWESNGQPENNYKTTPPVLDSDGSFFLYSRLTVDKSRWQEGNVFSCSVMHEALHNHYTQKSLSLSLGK

B2: anti-human CCR6 chimeric antibody KM4704 chimera (antibody, human IgG1, V domains shown)
VH: EVQLQESGPGLVKPSQSLSLTCSVTGYSITSNYWGWIRKFPGNKMEWMGYTSSSGSTSYNPYLKSRISITRDTSKNQFFLKLNSVTTEDTATYYCTGGYVMDAWGQGASVTVSS
VL: DVLMTQTPVSLPVSLGGQVSISCRSSQSLVHSDGNTYLHWYLQKPGQSPQLLIYRVSNRFSGVPDRFSGSGSGTDFTLKISRVEPEDLGVYYCLQRTYVPWTFGGGTKLDLK
- binding result [1]: binds
- binding result [2]: no binding
- binding result [3]: binds

B3: anti-human CCR6 rat monoclonal antibody KM4704 (antibody, rat IgG2b, V domains shown)
VH: B2 VH
VL: B2 VL
- binding result [4]: binds
- binding result [2]: no binding (tested: 10 μg/mL)
- binding result [5]: no binding (tested: 10 μg/mL)
- binding result [6]: no binding (tested: 10 μg/mL)
- Kd [7]: 0.67 nM
- binding result [8]: binds

B4: anti-human CCR6 rat monoclonal antibody KM4703 (antibody, rat IgG2b, V domains shown)
VH: QVQMKETGPGLVQPTQTLSLTCTVSGFSLTSSRVHWVRQPPGKGLEWMGVIYYDGKTDYNATLKSRLSISRDTSKSQVFLKINSLQTDDTAMYYCAGGVIMDAWGQGASVTVSP
VL: B2 VL with T7I, S20A, S32T, L94S, V99F, W101L, G105S, D110E, L111I
- binding result [4]: binds
- binding result [2]: no binding (tested: 10 μg/mL)
- binding result [5]: no binding (tested: 10 μg/mL)
- binding result [6]: no binding (tested: 10 μg/mL)
- Kd [7]: 1.15 nM
- binding result [8]: binds

B5: anti-human CCR6 chimeric antibody KM4705 chimera (antibody, human IgG1, V domains shown)
VH: EVQLVETGGGLVQPKGSLKLSCAASGFSFKTNAMNWVRQAPGKGLEWVARIRSKINNYATYYADSVKDRFTISRDDSQSMLYLQMNNLKTEDTAMYYCVSDHYGYGAVDYWGQGTSVTVSS
VL: DIQMNQSPSSLSASLGDTITITCRASQNINIWLSWYQQKPGSIPKLLIYKASNLHTGVSSRFSGSGYGTDFTLTISSLQPEDIATYYCLQGRSYPLTFGGGTNLEIK
- binding result [1]: binds
- binding result [2]: binds
- binding result [9]: binds
- binding result [10]: binds
- binding result [3]: binds

B8: anti-human CCR6 mouse monoclonal antibody KM4592 (antibody, V domains shown)
VH: DVQLVESGGGLVQPGGSRKLSCAASGFTFSSFGMHWVRQAPEKGLEWVAYISTGSGSIYYADTVKGRFTISRDNPKNTLFLQMTSLRSEDTAIYYCLKGGDGYYVAAWFAYWGQGTLVTVSA
VL: DIVLTQAAPSVSVTPGESVSISCRSSKSLLHTNDNTYLYWFLQRPGQSPQLLIYRMSNLASGVPDRFSGSGSGTAFTLRISRVEAEDVGVYYCMQHLEYPLTFGAGTKLELK
- binding result [4]: binds
- binding result [2]: no binding (tested: 10 μg/mL)
- binding result [5]: no binding (tested: 10 μg/mL)
- binding result [6]: no binding (tested: 10 μg/mL)
- Kd [7]: 0.38 nM
- binding result [8]: binds

Next, values leading:

- binding result [1]: binds
- binding result [2]: no binding
- binding result [3]: binds
B1: anti-human CCR6 chimeric antibody KM4703 chimera (antibody, human IgG1, V domains shown)
VH: B4 VH
VL: B2 VL with T7I, S20A, S32T, L94S, V99F, W101L, G105S, D110E, L111I

- binding result [11]: binds
- binding result [12]: binds
- binding result [13]: binds
- binding result [4]: binds
- binding result [5]: no binding (tested: 10 μg/mL)
- binding result [6]: no binding (tested: 10 μg/mL)
- Kd [7]: 6.52 nM
- binding result [8]: binds
B6: anti-human CCR6 mouse monoclonal antibody KM4705 (antibody, mouse IgG2b, V domains shown)
VH: B5 VH
VL: B5 VL

- binding result [1]: binds
- binding result [2]: no binding
- binding result [3]: binds
B7: anti-human CCR6 chimeric antibody KM4592 chimera (antibody, human IgG1, V domains shown)
VH: B8 VH
VL: B8 VL
